Test results from US20050064507.

What was measured:
[1] = molecular target: T1, ADD2 peptide KKKFRTPSFLKKSKK (SEQ ID NO:95) (not fully specified)
T1 chain: KKKFRTPSFLKKSKK

[2] = molecular target: T2, CACNA1C peptide RGFLRSASLGRRASFHLE (SEQ ID NO:96) (not fully specified)
T2 chain: RGFLRSASLGRRASFHLE

[3] = molecular target: T3, CHRM1 peptide RKIPKRPGSVHRTPSRQ (SEQ ID NO:83) (not fully specified)
T3 chain: RKIPKRPGSVHRTPSRQ

[4] = molecular target: T4, EBNA1BP2 peptide KRPGKKGSNKRPGKR (SEQ ID NO:112) (not fully specified)
T4 chain: KRPGKKGSNKRPGKR

[5] = molecular target: T5, FLJ20574 peptide GENVLKKSMKSRVKG (SEQ ID NO:113) (not fully specified)
T5 chain: GENVLKKSMKSRVKG

[6] = molecular target: T6, LIMK-2 peptide LRRRSLRRSNSISKSPGP (SEQ ID NO:121) (not fully specified)
T6 chain: LRRRSLRRSNSISKSPGP

[7] = molecular target: T7, LIMK2 peptide KATTKKRTLRKNDRK (SEQ ID NO:108) (not fully specified)
T7 chain: KATTKKRTLRKNDRK

[8] = molecular target: T8, MARCKS peptide KKKKKRFSFKKSFKL (SEQ ID NO:80) (not fully specified)
T8 chain: KKKKKRFSFKKSFKL

[9] = molecular target: T9, MLK3 peptide HVRRRRGTFKRSKLRARD (SEQ ID NO:76) (not fully specified)
T9 chain: HVRRRRGTFKRSKLRARD

[10] = molecular target: T10, MLK3 peptide QQVDRERPHVRRRRGTFKRS (SEQ ID NO:128) (not fully specified)
T10 chain: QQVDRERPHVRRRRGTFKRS

[11] = molecular target: T11, MYBPC3 peptide LLKKRDSFRTPRDSKLE (SEQ ID NO:103) (not fully specified)
T11 chain: LLKKRDSFRTPRDSKLE

[12] = molecular target: T12, MacMARCKS peptide KKKFSFKKPFKLSGLSFKRN (SEQ ID NO:162) (not fully specified)
T12 chain: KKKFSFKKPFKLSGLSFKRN

[13] = molecular target: T13, NCF1 peptide GAPPRRSSIRNAH (SEQ ID NO:101) (not fully specified)
T13 chain: GAPPRRSSIRNAH

[14] = molecular target: T14, NEURL peptide ALRRPSLRREADD (SEQ ID NO:105) (not fully specified)
T14 chain: ALRRPSLRREADD

[15] = molecular target: T15, NR4A3 peptide KEVVRTDSLKGRRGR (SEQ ID NO:109) (not fully specified)
T15 chain: KEVVRTDSLKGRRGR

[16] = molecular target: T16, PARIS1 peptide EYLERRASRRRAV (SEQ ID NO:130) (not fully specified)
T16 chain: EYLERRASRRRAV

[17] = molecular target: T17, PARIS1 peptide EYLERRASRRRAV (SEQ ID NO:138) (not fully specified)
T17 chain: EYLERRASRRRAV

[18] = molecular target: T18, PKD1 peptide RVVQSVKHTKRKSSTVMK (SEQ ID NO:149) (not fully specified)
T18 chain: RVVQSVKHTKRKSSTVMK

[19] = molecular target: T19, PLEK peptide KFARKSTRRSIRLPE (SEQ ID NO:78) (not fully specified)
T19 chain: KFARKSTRRSIRLPE

[20] = molecular target: T20, SMARCA5 peptide MAQIERGEARIQRRISIKKA (SEQ ID NO:166) (not fully specified)
T20 chain: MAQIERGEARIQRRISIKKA

[21] = molecular target: T21, SPTBN4 peptide EGGDRRASGRRK (SEQ ID NO:110) (not fully specified)
T21 chain: EGGDRRASGRRK

[22] = molecular target: T22, cyclophilin G peptide TEEKSKKRKKKHRKNSRKHK (SEQ ID NO:165) (not fully specified)
T22 chain: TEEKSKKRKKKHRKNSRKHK

[23] = molecular target: T23, cytohesin-2 peptide VDPFYEMLAARKKRISVKKK (SEQ ID NO:150) (not fully specified)
T23 chain: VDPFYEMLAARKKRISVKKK

[24] = molecular target: T24, dag kinase iota peptide NRKKKRTSFKRKA (SEQ ID NO:117) (not fully specified)
T24 chain: NRKKKRTSFKRKA

[25] = molecular target: T25, dag kinase zeta peptide KKKKRASFKRKSSKKG (SEQ ID NO:114) (not fully specified)
T25 chain: KKKKRASFKRKSSKKG

[26] = molecular target: T26, fit1 peptide VQMTWSYPDEKNKRASVRRR (SEQ ID NO:158) (not fully specified)
T26 chain: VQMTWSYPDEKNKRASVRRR

[27] = molecular target: T27, kinesin 3C peptide LEKRGMLGKRPRRKSSRRKK (SEQ ID NO:133) (not fully specified)
T27 chain: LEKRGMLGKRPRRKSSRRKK

[28] = molecular target: T28, phospholemman peptide EEGTFRSSIRRLSTRRR (SEQ ID NO:116) (not fully specified)
T28 chain: EEGTFRSSIRRLSTRRR

[29] = molecular target: T29, ribosomal protein S6 peptide AKRRRLSSLRASTSK (SEQ ID NO:120) (not fully specified)
T29 chain: AKRRRLSSLRASTSK

[30] = molecular target: T30, slp4 peptide TYLLPDKSRQGKRKTSIKRD (SEQ ID NO:153) (not fully specified)
T30 chain: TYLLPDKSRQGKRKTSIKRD

[31] = molecular target: T31, titin peptide PFEVVWYKDKRQLRSSKKYK (SEQ ID NO:160) (not fully specified)
T31 chain: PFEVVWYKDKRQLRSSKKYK

B1: PKC-epsilon (protein)
chain: MVVFNGLLKIKICEAVSLKPTAWSLRHAVGPRPQTFLLDPYIALNVDDSRIGQTATKQKTNSPAWHDEFVTDVCNGRKIELAVFHDAPIGYDDFVANCTIQFEELLQNGSRHFEDWIDLEPEGRVYVIIDLSGSSGEAPKDNEERVFRERMRPRKRQGAVRRRVHQVNGHKFMATYLRQPTYCSHCRDFIWGVIGKQGYQCQVCTCVVHKRCHELIITKCAGLKKQETPDQVGSQRFSVNMPHKFGIHNYKVPTFCDHCGSLLWGLLRQGLQCKVCKMNVHRRCETNVAPNCGVDARGIAKVLADLGVTPDKITNSGQRRKKLIAGAESPQPASGSSPSEEDRSKSAPTSPCDQEIKELENNIRKALSFDNRGEEHRAASSPDGQLMSPGENGEVRQGQAKRLGLDEFNFIKVLGKGSFGKVMLAELKGKDEVYAVKVLKKDVILQDDDVDCTMTEKRILALARKHPYLTQLYCCFQTKDRLFFVMEYVNGGDLMFQIQRSRKFDEPRSRFYAAEVTSALMFLHQHGVIYRDLKLDNILLDAEGHCKLADFGMCKEGILNGVTTTTFCGTPDYIAPEILQELEYGPSVDWWALGVLMYEMMAGQPPFEADNEDDLFESILHDDVLYPVWLSKEAVSILKAFMTKNPHKRLGCVASQNGEDAIKQHPFFKEIDWVLLEQKKIKPPFKPRIKTKRDVNNFDQDFTREEPVLTLVDEAIVKQINQEEFKGFSYFGEDLMP
**Q.** How did the in vitro phosphorylation (% of best substrate) [1] turn out when B1 was run?
**A.** 31

**Q.** And the in vitro phosphorylation (% of best substrate) [2]?
**A.** 41

**Q.** And the in vitro phosphorylation (% of best substrate) [3]?
**A.** 47

**Q.** What about the in vitro phosphorylation (% of best substrate) [4] of the same protein?
**A.** 11

**Q.** What about the in vitro phosphorylation (% of best substrate) [5] of the same protein?
**A.** 10

**Q.** What about the in vitro phosphorylation, 1 uM peptide (% of best substrate) [6] of the same protein?
**A.** 49

**Q.** And the in vitro phosphorylation (% of best substrate) [7]?
**A.** 8

**Q.** And the in vitro phosphorylation (% of best substrate) [8]?
**A.** 71

**Q.** What about the in vitro phosphorylation (% of best substrate) [9] of the same protein?
**A.** 100

**Q.** And the in vitro phosphorylation, 1 uM peptide (% of best substrate) [10]?
**A.** 32

**Q.** And the in vitro phosphorylation (% of best substrate) [11]?
**A.** 21

**Q.** What about the in vitro phosphorylation, 1 uM peptide (% of best substrate) [12] of the same protein?
**A.** 19

**Q.** What about the in vitro phosphorylation (% of best substrate) [13] of the same protein?
**A.** 19

**Q.** And the in vitro phosphorylation (% of best substrate) [14]?
**A.** 29

**Q.** And the in vitro phosphorylation (% of best substrate) [15]?
**A.** 26

**Q.** And the in vitro phosphorylation, 1 uM peptide (% of best substrate) [16]?
**A.** 46

**Q.** What about the in vitro phosphorylation, 1 uM peptide (% of best substrate) [17] of the same protein?
**A.** 27

**Q.** And the in vitro phosphorylation, 1 uM peptide (% of best substrate) [18]?
**A.** 27

**Q.** What about the in vitro phosphorylation (% of best substrate) [19] of the same protein?
**A.** 84

**Q.** What about the in vitro phosphorylation, 1 uM peptide (% of best substrate) [20] of the same protein?
**A.** 10

**Q.** And the in vitro phosphorylation (% of best substrate) [21]?
**A.** 4

**Q.** And the in vitro phosphorylation, 1 uM peptide (% of best substrate) [22]?
**A.** 12

**Q.** What about the in vitro phosphorylation, 1 uM peptide (% of best substrate) [23] of the same protein?
**A.** 20

**Q.** What about the in vitro phosphorylation, 1 uM peptide (% of best substrate) [24] of the same protein?
**A.** 67

**Q.** What about the in vitro phosphorylation, 1 uM peptide (% of best substrate) [25] of the same protein?
**A.** 100

**Q.** What about the in vitro phosphorylation, 1 uM peptide (% of best substrate) [26] of the same protein?
**A.** 11

**Q.** What about the in vitro phosphorylation, 1 uM peptide (% of best substrate) [27] of the same protein?
**A.** 31

**Q.** What about the in vitro phosphorylation, 1 uM peptide (% of best substrate) [28] of the same protein?
**A.** 92

**Q.** What about the in vitro phosphorylation, 1 uM peptide (% of best substrate) [29] of the same protein?
**A.** 56

**Q.** What about the in vitro phosphorylation, 1 uM peptide (% of best substrate) [30] of the same protein?
**A.** 24

**Q.** And the in vitro phosphorylation, 1 uM peptide (% of best substrate) [31]?
**A.** 13
